# Assay results as given in publication PMC12442068.
# Target: recombinant TMPRSS2 (UniProt O15393)
# Assay: enzyme inhibition kinetics (progress curve method); TMPRSS2 mixed with increasing SB3 (0-10 uM), fluorescent substrate Z-Gly-Gly-Arg-AMC, TBS pH 7.6, 25 °C, 300 s; Camostat mesylate as reference inhibitor
substance,measurement,value
"recombinant SerpinB3 protein, wild type (from UniProt P29508 1-390) (natural protein)","dissociation constant, fold against Camostat",6 times lower
